How the values were obtained:
[1] = target: integrin αvβ6 on NIH3T3β6 cells (NIH3T3 cells transfected with β6); test: FACS on NIH3T3β6 cells, geometric MFI against antibody concentration
biotinylated αvβ6 = test: inhibition of biotinylated αvβ6 binding to plate-coated LAP, streptavidin-HRP

Row | EC50 relative to chimeric antibody (ratio to chimeric antibody) [1] | IC50 relative to chimeric antibody (ratio to chimeric antibody) (biotinylated αvβ6) | Binder
1 | 1.13 | 1.02 | humanized 1A8 antibody VH1/Vκ1 (antibody, IgG1, V domains shown) VH: QVQFVQSGPELKKPGASVKVSCKGSSYTFTDYTMHWVKLAHAKTLEWIGVIDTYYGKTNYNQKFEGRATMTVDKSSSTAYMELARLRSEDSAVYYCARGGFRRGDRPSLRYAMDSWGQGTSVTVSS VL: DIVLTQSPDSLAVSLGERATINCRASQSVSISTYSYIHWFQQKPGQPPKLLIKYASNLESGVPDRFSGSGSGTDFTLNIHPVEEEDVGIYYCQHSWEIPYTFGGGTKVEIK
2 | 3.57 | 1.93 | humanized 1A8 antibody VH4/Vκ1 (antibody, IgG1, V domains shown) VH: QVQLVQSGAEVKKPGASVKVSCKGSSYTFTDYTMHWVRLASAKTLEWIGVIDTYYGKTNYNQKFEGRATITVDKSSSTAYMELSSLRSEDTAVYYCARGGFRRGDRPSLRYAMDSWGQGTLVTVSS VL: DIVLTQSPDSLAVSLGERATINCRASQSVSISTYSYIHWFQQKPGQPPKLLIKYASNLESGVPDRFSGSGSGTDFTLNIHPVEEEDVGIYYCQHSWEIPYTFGGGTKVEIK
3 | 1.07 | 1.19 | humanized 1A8 antibody VH1/Vκ2 (antibody, IgG1, V domains shown) VH: QVQFVQSGPELKKPGASVKVSCKGSSYTFTDYTMHWVKLAHAKTLEWIGVIDTYYGKTNYNQKFEGRATMTVDKSSSTAYMELARLRSEDSAVYYCARGGFRRGDRPSLRYAMDSWGQGTSVTVSS VL: DIVLTQSPDSLAVSLGERATINCRASQSVSISTYSYIHWFQQKPGQPPKLLIKYASNLESGVPDRFSGSGSGTDFTLKISRVEEEDVGIYYCQHSWEIPYTFGGGTKVEIK
4 | 2.4 | 1.32 | humanized 1A8 antibody VH2/Vκ2 (antibody, IgG1, V domains shown) VH: QVQLVQSGAEVKKPGASVKVSCKGSSYTFTDYTMHWVKLASAKTLEWIGVIDTYYGKTNYNQKFEGRATMTVDKSSSTAYMELSSLRSEDTAVYYCARGGFRRGDRPSLRYAMDSWGQGTLVTVSS VL: DIVLTQSPDSLAVSLGERATINCRASQSVSISTYSYIHWFQQKPGQPPKLLIKYASNLESGVPDRFSGSGSGTDFTLKISRVEEEDVGIYYCQHSWEIPYTFGGGTKVEIK
5 | 2.96 | 1.74 | humanized 1A8 antibody VH4/Vκ3 (antibody, IgG1, V domains shown) VH: QVQLVQSGAEVKKPGASVKVSCKGSSYTFTDYTMHWVRLASAKTLEWIGVIDTYYGKTNYNQKFEGRATITVDKSSSTAYMELSSLRSEDTAVYYCARGGFRRGDRPSLRYAMDSWGQGTLVTVSS VL: DIVMTQSPDSLAVSLGERATINCRASQSVSISTYSYIHWFQQKPGQPPKLLIKYASNLESGVPDRFSGSGSGTDFTLKISRVEAEDVGIYYCQHSWEIPYTFGGGTKVEIK
6 | 1.04 | 1.05 | humanized 1A8 antibody VH1/Vκ3 (antibody, IgG1, V domains shown) VH: QVQFVQSGPELKKPGASVKVSCKGSSYTFTDYTMHWVKLAHAKTLEWIGVIDTYYGKTNYNQKFEGRATMTVDKSSSTAYMELARLRSEDSAVYYCARGGFRRGDRPSLRYAMDSWGQGTSVTVSS VL: DIVMTQSPDSLAVSLGERATINCRASQSVSISTYSYIHWFQQKPGQPPKLLIKYASNLESGVPDRFSGSGSGTDFTLKISRVEAEDVGIYYCQHSWEIPYTFGGGTKVEIK
7 | 2.46 | 0.98 | humanized 1A8 antibody VH2/Vκ3 (antibody, IgG1, V domains shown) VH: QVQLVQSGAEVKKPGASVKVSCKGSSYTFTDYTMHWVKLASAKTLEWIGVIDTYYGKTNYNQKFEGRATMTVDKSSSTAYMELSSLRSEDTAVYYCARGGFRRGDRPSLRYAMDSWGQGTLVTVSS VL: DIVMTQSPDSLAVSLGERATINCRASQSVSISTYSYIHWFQQKPGQPPKLLIKYASNLESGVPDRFSGSGSGTDFTLKISRVEAEDVGIYYCQHSWEIPYTFGGGTKVEIK
8 | 3.24 | 2.3 | humanized 1A8 antibody VH4/Vκ2 (antibody, IgG1, V domains shown) VH: QVQLVQSGAEVKKPGASVKVSCKGSSYTFTDYTMHWVRLASAKTLEWIGVIDTYYGKTNYNQKFEGRATITVDKSSSTAYMELSSLRSEDTAVYYCARGGFRRGDRPSLRYAMDSWGQGTLVTVSS VL: DIVLTQSPDSLAVSLGERATINCRASQSVSISTYSYIHWFQQKPGQPPKLLIKYASNLESGVPDRFSGSGSGTDFTLKISRVEEEDVGIYYCQHSWEIPYTFGGGTKVEIK
9 | 3 | 1.48 | humanized 1A8 antibody VH2/Vκ1 (antibody, IgG1, V domains shown) VH: QVQLVQSGAEVKKPGASVKVSCKGSSYTFTDYTMHWVKLASAKTLEWIGVIDTYYGKTNYNQKFEGRATMTVDKSSSTAYMELSSLRSEDTAVYYCARGGFRRGDRPSLRYAMDSWGQGTLVTVSS VL: DIVLTQSPDSLAVSLGERATINCRASQSVSISTYSYIHWFQQKPGQPPKLLIKYASNLESGVPDRFSGSGSGTDFTLNIHPVEEEDVGIYYCQHSWEIPYTFGGGTKVEIK
10 | 2.86 | 1.07 | humanized 1A8 antibody VH3/Vκ1 (antibody, IgG1, V domains shown) VH: QVQLVQSGAEVKKPGASVKVSCKGSSYTFTDYTMHWVRLASAKTLEWIGVIDTYYGKTNYNQKFEGRATMTVDKSSSTAYMELSSLRSEDTAVYYCARGGFRRGDRPSLRYAMDSWGQGTLVTVSS VL: DIVLTQSPDSLAVSLGERATINCRASQSVSISTYSYIHWFQQKPGQPPKLLIKYASNLESGVPDRFSGSGSGTDFTLNIHPVEEEDVGIYYCQHSWEIPYTFGGGTKVEIK
11 | 2.41 | 1.2 | humanized 1A8 antibody VH3/Vκ3 (antibody, IgG1, V domains shown) VH: QVQLVQSGAEVKKPGASVKVSCKGSSYTFTDYTMHWVRLASAKTLEWIGVIDTYYGKTNYNQKFEGRATMTVDKSSSTAYMELSSLRSEDTAVYYCARGGFRRGDRPSLRYAMDSWGQGTLVTVSS VL: DIVMTQSPDSLAVSLGERATINCRASQSVSISTYSYIHWFQQKPGQPPKLLIKYASNLESGVPDRFSGSGSGTDFTLKISRVEAEDVGIYYCQHSWEIPYTFGGGTKVEIK

Reference: patent publication US20160031992A1
